# Assay results taken from patent US20240287172A1 (SCIRHOM, published 2024).
# T1: hiR2-FL-S561A-T7 (human, UniProt Q6PJF5 1-856)
# T1 sequence: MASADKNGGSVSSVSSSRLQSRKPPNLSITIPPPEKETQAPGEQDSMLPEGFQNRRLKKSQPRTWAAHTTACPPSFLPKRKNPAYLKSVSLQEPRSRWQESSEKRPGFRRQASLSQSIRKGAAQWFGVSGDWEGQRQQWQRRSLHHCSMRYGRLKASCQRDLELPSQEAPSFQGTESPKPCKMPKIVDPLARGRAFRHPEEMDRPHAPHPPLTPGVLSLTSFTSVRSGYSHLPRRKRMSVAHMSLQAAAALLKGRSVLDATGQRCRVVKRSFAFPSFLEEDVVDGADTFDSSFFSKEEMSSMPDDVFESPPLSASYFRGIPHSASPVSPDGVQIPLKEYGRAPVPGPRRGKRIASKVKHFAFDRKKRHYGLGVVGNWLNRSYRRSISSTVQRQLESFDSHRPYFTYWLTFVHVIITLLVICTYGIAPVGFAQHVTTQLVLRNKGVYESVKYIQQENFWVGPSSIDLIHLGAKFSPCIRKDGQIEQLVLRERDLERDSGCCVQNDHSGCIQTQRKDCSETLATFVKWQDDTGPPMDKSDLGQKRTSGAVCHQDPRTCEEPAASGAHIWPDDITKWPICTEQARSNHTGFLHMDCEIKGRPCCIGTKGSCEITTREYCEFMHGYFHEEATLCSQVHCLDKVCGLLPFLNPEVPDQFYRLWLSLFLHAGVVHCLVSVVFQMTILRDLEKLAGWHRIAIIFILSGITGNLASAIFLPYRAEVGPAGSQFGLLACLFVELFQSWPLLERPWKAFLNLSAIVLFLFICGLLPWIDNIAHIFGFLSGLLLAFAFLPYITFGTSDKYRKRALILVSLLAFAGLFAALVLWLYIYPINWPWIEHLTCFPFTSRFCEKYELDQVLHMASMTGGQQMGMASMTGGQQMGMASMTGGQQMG
# T2: hiR2-FL-L539A-T7 (human, UniProt Q6PJF5 1-856)
# T2 construct: on MEF-DKO cells
# T2 sequence: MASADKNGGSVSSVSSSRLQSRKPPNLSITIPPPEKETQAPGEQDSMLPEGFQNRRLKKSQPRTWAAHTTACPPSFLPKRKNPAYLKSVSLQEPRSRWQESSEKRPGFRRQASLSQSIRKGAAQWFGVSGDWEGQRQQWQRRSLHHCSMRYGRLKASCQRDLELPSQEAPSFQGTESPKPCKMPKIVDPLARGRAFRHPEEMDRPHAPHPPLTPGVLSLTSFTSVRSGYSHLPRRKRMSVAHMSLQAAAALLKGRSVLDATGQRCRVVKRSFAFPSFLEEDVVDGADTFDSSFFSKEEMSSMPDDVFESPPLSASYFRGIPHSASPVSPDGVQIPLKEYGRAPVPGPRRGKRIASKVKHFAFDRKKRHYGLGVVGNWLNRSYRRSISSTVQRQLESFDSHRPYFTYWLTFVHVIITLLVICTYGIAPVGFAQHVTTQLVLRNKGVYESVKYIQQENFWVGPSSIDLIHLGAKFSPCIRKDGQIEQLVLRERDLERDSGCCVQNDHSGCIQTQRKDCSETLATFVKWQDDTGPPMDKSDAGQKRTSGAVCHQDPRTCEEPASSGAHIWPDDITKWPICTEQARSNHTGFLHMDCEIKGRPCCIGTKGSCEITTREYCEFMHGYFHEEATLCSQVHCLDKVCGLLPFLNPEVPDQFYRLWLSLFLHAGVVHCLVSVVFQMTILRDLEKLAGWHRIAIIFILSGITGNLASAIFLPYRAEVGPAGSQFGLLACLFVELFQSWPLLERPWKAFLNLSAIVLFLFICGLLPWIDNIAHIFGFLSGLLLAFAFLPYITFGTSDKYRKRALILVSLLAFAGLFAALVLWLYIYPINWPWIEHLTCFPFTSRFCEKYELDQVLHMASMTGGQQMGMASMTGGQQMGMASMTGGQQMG
# Tests used:
# hiR2-FL-S561A-T7 = target: T1, hiR2-FL-S561A-T7; experiment: FACS on MEF-DKO cells expressing the variant, 3 µg/ml antibody
# Description: (§1) To pellet cells and remove supernatants, the plates were centrifuged at 1,500 rpm and 4° C. for 3 minutes. For primary staining, cells were resuspended in 100 μl per well of either FACS buffer alone (controls) or the purified antibodies 3, 5, 16, 22, 34, 42, 43, 44, 48, and 50 of the invention at 3 μg/ml in FACS buffer and incubated on ice for 1 hour. Afterwards, plates were centrifuged at 1,500 rpm and 4° C. for 3 minutes and washed twice with 200 μl per well of FACS buffer. For secondary staining, cells were spun down and resuspended in 100 μl per well of PE-conjugated goat anti-mouse IgG F(ab′)2 detection fragment (Dianova, Germany) diluted 1:100 in FACS buffer. Protected from light, the cell suspensions were incubated on ice for 1 hour. Plates were then centrifuged at 1,500 rpm and 4° C. for 3 minutes and washed three times with 200 μl per well of FACS buffer. Finally, cells were resuspended in 150 μl per well of FACS buffer and analyzed using a BD Accuri™ C6 Plus flow cytometer (Becton Dickinson, Germany).
# hiR2-FL-L539A-T7 = target: T2, hiR2-FL-L539A-T7; experiment: as above
# Description: as §1
Binder,loss of binding vs wild type (hiR2-FL-S561A-T7) [%],loss of binding vs wild type (hiR2-FL-L539A-T7) [%]
"antibody 5 (antibody, V domains shown, mouse IgG, kappa light chain; also called clone #5; purified antibody 5) VH: QVTLKESGPGILQPSQTLSLTCSFSGFSLSTFGMGVGWIRQPSGKGLEWLAHIWWDDEKYYNSALKSRLTISKATSKNQAFLKIANVDTADTATYYCARISNYGSNYWYFNVWGTGTTVTVSS VL: QVVLTQSPALMSASPGEKVTMTCSAGSSVSCMYWYQQKPGSSPRVLIYDTSNLASGVPARFTGSGSGTSYSLTISRMEAEDAASYYCQQWNSYPLTFGAGTKLELK",≥ 30,≥ 60
"antibody 22 (antibody, V domains shown, mouse IgG, kappa light chain; also called clone #22; purified antibody 22) VH: QVTLKESGPGILQPSQTLSLTCSFSGFSLSTFGMGVGWIRQPSGKGLEWLAHIWWDDEKYYNSALKSRLTISKATSKNQVFLKIANVDTADTATYYCARISNYGSNYWYFNVWGTGTTVTVSS VL: QVVLTQSPALMSASPGEKVTMTCSAGSSVSYMYWYQQKPGSSPRVLIYDTSNLASGVPARFTGSGSGTSYSLTISRMEAEDAATYYCQQWNSYPLTFGAGTKLELK",≥ 30,≥ 95
"antibody 42 (antibody, V domains shown, mouse IgG, kappa light chain; also called clone #42; purified antibody 42) VH: QVTLKESGPGILQPSQTLSLTCSLSGFSLSTFGRGVGWIRQPSGKGLEWLAHIWWDDEKYYNPALKSRLTISKDTSKNQVFLRIANVDTADTATYYCARIQNYGSNYWYFDVWGTGTTVTVSS VL: LIVLTQSPAIMSASPGEKVTMTCGATSRISYMFWYQQKPGSSPRVLIYDTSNLASGVPVRFSGSGSGTSYSLTISRVEAEDVATYYCQQWNSYPLTFGAGTKLELK",≥ 30,≥ 60
"antibody 3 (antibody, V domains shown, mouse IgG, kappa light chain; also called clone #3; purified antibody 3) VH: QVTLKESGPGILQPSQTLSLTCSFSGFSLTTFAMGIGWVRQPSGKGLEWLAHIWWDGEKYNNPVLKSRLTISKDTSKNQVFLRIANVDTPDTATYYCARISSIYYIIDNWGQGTSVTVSS VL: DIVLTQSPATLSVTPGHSVSLSCRASQSISNNLHWYQKKSHESPRLLIKYVSQSISGIPSRFSGSGSGTDFTLSINSVETEDFGMYFCQQSYNWPLTFGAGTKLELK",≥ 30,≥ 30
"antibody 34 (antibody, V domains shown, mouse IgG, kappa light chain; also called clone #34; purified antibody 34) VH: QVTLKESGPGILQPSQTLSLTCSFSGFSLSTFSLGVGWIRQSSGKGLEWLAHIWWDDEKYYNPALKSRLTISKDTSKNQVFLKIANVDAADTATYYCARAYYSKSYYALDYWGQGTSVTVSS VL: DIQMTQSPSSLSASLGERVSLTCRASQEISGYLSWLQQKPDGTIKRLIYAASTLDSGVPKRFSGSRSGSDYSLAISSLESEDFADYYCLQYANFPFTFGSGTKLEIK",≥ 30,≥ 60
"antibody 43 (antibody, V domains shown, mouse IgG, kappa light chain; also called clone #43; purified antibody 43) VH: QVALKESGPGILQPSQTLSLTCSFSGFSLSTFGMGVGWIRQSSGKGLEWLANIWWDDDKYYNPALKSRLTISKDASKNQAFLKIANVDTADTATYYCARIGNYGSNYWYFDVWGTGTTVTVSS VL: QIVLTQSPAIMSASPGERVTMTCSANSRISYMYWYQQKPGSSPRLLIYDTSNLASGVPVRFSGSGSGTSYSLTISRMEAEDAATYNCQQWSSYPLTFGAGTKLELK",≥ 30,≥ 95
"antibody 44 (antibody, V domains shown, mouse IgG, kappa light chain; also called clone #44; purified antibody 44) VH: QVTLKESGPGILQPSQTLSLTCSFSGFSLSTFGMGVGWIRQPSEKGLEWLAHIWWDDDKYYNPALKSRLTISKDTSKNQIFLKITNVDTAETATYYCSRIGNYGSNYWYFDVWGTGTTVTVSS VL: QIVLTQSPAVMSASPGEKVTMTCTASSSVYYMYWYQQTPGSSPRLLIYDTSNLASGVPVRFSGSGSGTSYSLTISRMEAEDAATYYCQQWNTYPLTFGAGTKLELK",≥ 30,≥ 60
"antibody 50 (antibody, V domains shown, mouse IgG, kappa light chain; also called clone #50; purified antibody 50) VH: QVQLQQSGAELVRPGASVKVSCKASGYAFSNYLIEWVKQRPGQGLEWIGVINPGSGFTKYNEKFKGKATLTADKSSSTAYMQLSSLTSEDSAVYFCARGLYRAMDYWGQGTSVTVSS VL: DIQMTQSPASQSASLGESVTITCLASQTIGTWLAWYQQKPGKSPQLLIYAAASLADGVPSRFSGGGSGTKFSFKISSLQAEDFVNYYCQQIYSTPYTFGGGTKLEIK",,≥ 30
